Experimental data: the supplement of paper PMC9732359
± gives the uncertainty stated by the source.

Assay: protein stability index of a GFP-peptide fusion (yeast GPS) (PSI 1-4); higher = more stable; sorted into four equal gates, so the index is relative within each strain
Procedure, shortened: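 The protein stability index combines read frequencies across sorting gates, each weighted by its gate number and then summed. To obtain those frequencies, a pooled yeast library of GFP fusions to tiled 17-residue yeast protein peptides, on a plasmid also expressing Cherry, was grown to mid-log phase in leucine-free medium. The cells were sorted into four equal gates by GFP/Cherry ratio before plasmid amplification by PCR and Illumina sequencing.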

Sequence	protein stability index (doa10∆)	protein stability index (pdr5∆)	protein stability index (san1∆)	protein stability index (ubr1∆)
CRGELKADIGKPGRMPF [CDC53]	2.21 ± 0.071	2.65 ± 0.069	2.91 ± 0.085	2.97 ± 0.067
CRKLSFSDKVNALWILV [ITC1]	1.72 ± 0.075	1.8 ± 0.044	1.5 ± 0.1	1.85 ± 0.051
CRYSCLALERMVPKRST [YCS4]	2.71 ± 0.27			2.02 ± 0.18
CYQFAEYLFKPQLISDK [ARP7]	2.38 ± 0.06	2.14 ± 0.049	2.2 ± 0.064	2.11 ± 0.04
DAEVAQFLEQGLSIHPT [SRP68]	2.79 ± 0.057	3 ± 0.063	2.76 ± 0.073	3.1 ± 0.042
DAGSNQYYVTQHDKMVD [SWI1]	3.04 ± 0.058	2.99 ± 0.046	2.95 ± 0.068	2.74 ± 0.045
DAHKAEQEDIIEKTESV [SWI3]	3.19 ± 0.086	3.32 ± 0.1	3.38 ± 0.046	3.21 ± 0.081
DAISQVINIAKAHPNFP [FAS1]	1.41 ± 0.076	2.65 ± 0.095	2.03 ± 0.26	2.91 ± 0.082
DAIYRELTKNPNSNVEL [SMC1]	3.31 ± 0.3	2.91 ± 0.15	3.33 ± 0.088	3.38 ± 0.13
DAKKCIAACTGVPDDKW [FAS1]	2.63 ± 0.092	2.35 ± 0.058	2.16 ± 0.11	2.78 ± 0.071
DAKSSAYSSRFQTPFRR [RPL5]	2.82 ± 0.067	2.83 ± 0.052	2.78 ± 0.054	2.91 ± 0.05
DAMIAQRSKKIQPTAKV [DIS3]	1.83 ± 0.082	1.99 ± 0.084	1.59 ± 0.067	1.69 ± 0.068
DARSSRNFSLAIIDKNT [PRE4]	3.02 ± 0.075	2.78 ± 0.083	2.98 ± 0.05	2.89 ± 0.056
DATTWRYSMSEQFPFYL [IRR1]	3.09 ± 0.098	2.94 ± 0.066	3.06 ± 0.063	3.07 ± 0.049
DATYDSALELVGQLNKV [RPN6]	3.11 ± 0.16	3.1 ± 0.11	3.27 ± 0.21	2.72 ± 0.28
DCRMGNFYIQYDPKDGL [AAR2]	2.77 ± 0.054	2.39 ± 0.058	2.31 ± 0.08	2.61 ± 0.037
DDAMEINGEDPANNHQL [SMX2]	3.38 ± 0.076	3.02 ± 0.086	3.3 ± 0.047	3.44 ± 0.071
DDDIEKQEQEEKIKSKK [YCG1]	3.08 ± 0.067	2.99 ± 0.056	3.01 ± 0.052	3.14 ± 0.049
DDDVTPSTKVASSAVMN [YLR335W/NUP2]	3.5 ± 0.14	3.19 ± 0.083	3.3 ± 0.065	3.26 ± 0.062
DDEGSFAQENSELAVAT [SRB6]	3.08 ± 0.065	3.25 ± 0.075	3.08 ± 0.054	3.3 ± 0.054
DDESPRFVMPNQLLAAL [RRP6]	1.98 ± 0.048	2.02 ± 0.052	1.88 ± 0.069	2.18 ± 0.042
DDFEVNVASLVRVQFQF [GRR1]	2.57 ± 0.059	1.77 ± 0.089	1.78 ± 0.18	1.5 ± 0.089
DDFQNFFDPKPFDQNLD [SWI1]	2.53 ± 0.061	1.95 ± 0.055	2.13 ± 0.1	2.12 ± 0.052
DDKLAYIRVNHADKDTF [POP8]	2.9 ± 0.059	2.58 ± 0.059	2.72 ± 0.063	2.62 ± 0.049
DDLKKDHIAIDWEDEEK [DSN1]	2.73 ± 0.083	3.06 ± 0.072	3.07 ± 0.065	2.82 ± 0.063
DDLQSSVIPEVDREAML [YCG1]	2.63 ± 0.085	2.71 ± 0.081	2.48 ± 0.12	2.4 ± 0.078

Sequence	protein stability index (doa10∆)	protein stability index (pdr5∆)	protein stability index (san1∆)	protein stability index (ubr1∆)
DDPVPTPPAIEHKPVSP [SSN2]	2.63 ± 0.14	2.59 ± 0.26	2.72 ± 0.29	2.49 ± 0.16
DDVLQTIITDCAFLLTK [YJL039C/NUP192]	1.76 ± 0.057	2.08 ± 0.062	1.79 ± 0.098	2.34 ± 0.047
DDYVLRIFAIAFTRKQA [RPS1A]	1.77 ± 0.019	1.888 ± 0.017	1.94 ± 0.027	2.156 ± 0.015
DEDLHEFQIEDAIWSLV [SRB8]	3.4 ± 0.13	2.96 ± 0.086	2.88 ± 0.14	3.3 ± 0.26
DEEENGSSDEDLKSLNV [SSN2]	3.24 ± 0.11	3.54 ± 0.1	3.35 ± 0.057	3.23 ± 0.093
DEFPELKEPVEDIIKRT [NUT2]	3.5 ± 0.066	3.36 ± 0.07	3.31 ± 0.045	3.36 ± 0.048
DEGTALSRLGLKRYCCR [RPB10]	3.38 ± 0.11	3.23 ± 0.15	3.53 ± 0.079	2.79 ± 0.12
DEHHESFELKEEDISDL [RRP6]	3.01 ± 0.072	3.23 ± 0.084	2.9 ± 0.075	3.15 ± 0.059
DEIATIQSKRLRNKIAG [RPS17A]	3.15 ± 0.11	3.13 ± 0.099	3.33 ± 0.066	3.48 ± 0.14
DEISPELLSKYKEQIIQ [SNU114]	2.44 ± 0.079	2.57 ± 0.08	2.42 ± 0.079	2.68 ± 0.075
DEITEDMFEMSDEEENN [SSN2]	3.16 ± 0.099	3.39 ± 0.11	3.25 ± 0.08	3.2 ± 0.075
DELEDDTLNETNLKMKR [RRP43]	3.18 ± 0.093	3.25 ± 0.082	3.26 ± 0.075	3.36 ± 0.098
DELLSQLDLCKLYFQLF [SRP68]	1.56 ± 0.1	1.67 ± 0.11	1.46 ± 0.15	1.72 ± 0.057
DELVLNFENDNENNSNG [REC8]	2.88 ± 0.19	2.62 ± 0.28	2.64 ± 0.15	2.79 ± 0.16
DERIEKELNTERQIFLE [CDC53]	2.9 ± 0.1	3.09 ± 0.12	3.13 ± 0.097	3.12 ± 0.086
DETYKGVEEVEGEYELT [RPL5]	3.21 ± 0.16	3.43 ± 0.15	3.16 ± 0.23	2.82 ± 0.27
DEVYVQNSKFLKVNVTL [YJL039C/NUP192]	2.68 ± 0.064	2.78 ± 0.054	2.76 ± 0.06	2.45 ± 0.039
DFAQKEINGDDDEDEDD [PRE10]	3.09 ± 0.11	3.19 ± 0.071	3.22 ± 0.082	3.28 ± 0.063
DFIKFDAGKLVYVTGGR [RPS4A]	2.22 ± 0.13	2.1 ± 0.086	2.41 ± 0.1	2.36 ± 0.094
DFIQLKQTAAYRTPGSS [SSN2]	2.88 ± 0.064	2.98 ± 0.071	2.79 ± 0.083	2.92 ± 0.044
DFNMKLAINAKTITSGL [RPB2]	2.99 ± 0.087	3.06 ± 0.086	2.76 ± 0.061	2.99 ± 0.05
DFNQAKHEEIDTKNLYV [RPS10A]	3.38 ± 0.16	2.81 ± 0.12	3.29 ± 0.078	3.07 ± 0.074
DFSIRKTCAKSVIQLCG [ECM29]	1.84 ± 0.12	1.91 ± 0.13	2.05 ± 0.22	
DGENDKKEATKPAFSFG [YLR335W/NUP2]	2.59 ± 0.048	2.21 ± 0.043	2.79 ± 0.041	2.9 ± 0.033
DGIGGLTEQIRELREVI [RPT4]		3.65 ± 0.28		
DGILRLYDALEPSDLRS [YGL100W/SEH1]	3.02 ± 0.061	3.02 ± 0.051	2.77 ± 0.041	2.99 ± 0.042
